# Test results from patent US11697815B2, “Regulation of gene expression through aptamer-modulated polyadenylation” (MeiraGTx UK II Limited, priority 2016, dated 2023).
# Experiments:
# [1] = tested on: Renilla luciferase expression; assay: Renilla luciferase assay of HEK 293 cells transfected with pRL-SV40 constructs carrying U1 binding sites in the 3′ UTR; type: cell-based; settings: for suppressive effect of U1 site on luciferase gene expression (in words): no ligand; for reduction fold (luciferase activity of mutant construct / wild type construct): compared to corresponding mutant construct; for inhibition of Renilla luciferase expression/activity: compared to pRL-SV40 control vector
# Protocol: Plasmid constructs: oligonucleotides (oligos) containing either wild type consensus U1 binding sequence or its mutant sequence were synthesized (IDT). The synthesized oligos were cloned into the 3′ UTR of the pRL-SV40 luciferase expression vector (Promega) using Gibson Assembly Cloning Kit (NEB). Constructs were purified (Qiagen) and verified by DNA sequencing (Genewiz).
# (§1) Transfection: 3.5×10^4 HEK 293 cells were plated in a 96-well flat bottom plate the day before transfection. Plasmid DNA (500 ng) was added to a tube or a 96-well U-bottom plate. Separately, TransIT-293 reagent (Mirus; 1.4 μl) was added to 50 μl Opti-mem I media (Life Technologies), and allowed to sit for 5 minutes at room temperature (“RT”). Then, 50 μl of this diluted transfection reagent was added to the DNA, mixed, and incubated at RT for 20 min. Finally, 7 μl of this solution was added to a well of cells in the 96-well plate.
# (§2) Renilla luciferase assay of cultured cells: 24 hours after the media change, plates were removed from the incubator, and equilibrated to RT for several minutes on a lab bench, and the media aspirated. Glo-lysis buffer (Promega, 100 μl, RT) was added, and the plates allowed to remain at room temp for at least 5 minutes. Then, the well contents were mixed by 50 μl trituration, and 20 μl of each well was mixed with 20 μl of Renilla-glo reagent in a solid-white 384-well plate. Ten minutes later, luminescence was measured using a Tecan machine with 500 msec read time. The luciferase activity was expressed as mean relative light unit (RLU)±SD.
# The stem-loop sequences containing a wild type 9 nt U1 binding sequence were synthesized (IDT) and cloned into pRL-SV40 vector. The construct sequences were verified by DNA sequencing (Genewiz). HEK 293 cells were transfected and Renilla luciferase assay were performed as described in Example 1.
# [2] = tested on: Renilla luciferase expression; assay: Renilla luciferase assay of HEK 293 cells transfected with U1_theo riboswitch constructs, with or without theophylline; type: cell-based; settings: for change of luciferase activity after theophylline treatment (in words): with vs without theophylline
# Protocol: as §1, §2
# Oligonucleotides containing either the full length of sequences of the stem from the stem-loop structure and theophylline aptamer or the truncated sequences of the stem, were synthesized (IDT) and cloned into pRL-SV40 vector using the Gibson Assembly Cloning Kit (NEB). Construct sequences were verified by DNA sequencing (Genewiz).
# Transfection and aptamer ligand treatment: HEK 293 cells were transfected as described in Example 1. Four hours after transfection, the media was aspirated, and new media with or without 3 mM theophylline was added. A Renilla luciferase assay was performed 20 to 24 hours after theophylline treatment as described in Example 1. The induction fold was expressed as the quotient of luciferase activity obtained in the presence of aptamer ligand divided by the value obtained in the absence of the aptamer ligand.
# Oligos containing 4 copies of the U1_theo_8_1 sequence in tandem were synthesized (IDT) and cloned using Gibson strategy and cloning kit (NEB). HEK 293 cells were transfected and Renilla luciferase assay was performed as described in Example 4.
Molecule,suppressive effect of U1 site on luciferase gene expression (in words) [1],reduction fold (luciferase activity of mutant construct / wild type construct) [1] [fold],further results
"U1-140 mut: mutant U1 binding sequence at −140 in pRL-SV40 (nucleic acid, in pRL-SV40; U1-140 mut in pRL-SV40) DNA: TCAAATCGTTCGTTGAGCGAGTTCTCAAAAATGAACAATAATTCTAGACATGGAACTAGCGGCCGCTTCGAGCAGACATGATAAGATACATTGATGAGTTTGGACAAACCACAACTAGAATGCAGTGAAAAAAATGCTTTATTTGTGAAATTTGTGATGCTATTGCTTTATTTGTAACCATTATAAGCTGCAATAAACAAGTTAACAACAAC",did not cause inhibition of luciferase gene expression,–,–
"U1-140 wt: consensus U1 binding sequence at −140 in pRL-SV40 (nucleic acid, in pRL-SV40; U1-140 wt in pRL-SV40) DNA: TCAAATCGTTCGTTGAGCGAGTTCTCAAAAATGAACAATAATTCTAGACAGGTAAGTAGCGGCCGCTTCGAGCAGACATGATAAGATACATTGATGAGTTTGGACAAACCACAACTAGAATGCAGTGAAAAAAATGCTTTATTTGTGAAATTTGTGATGCTATTGCTTTATTTGTAACCATTATAAGCTGCAATAAACAAGTTAACAACAAC",–,12,inhibition of Renilla luciferase expression/activity [1]: 91%
"U1 87-9 SL: 9 nt U1 site embedded in a stem-loop structure in pRL-SV40 (nucleic acid, in pRL-SV40; U1 87-9 SL in pRL-SV40, 9 nt U1 site embedded in a stem-loop structure in pRL-SV40) DNA: TCAAATCGTTCGTTGAGCGAGTTCTCAAAAATGAACAATAATTCTAGAGCGGCCGCTTCGAGCAGACATGATAAGATACATTGATGAGTTTGGACAAACCAAACCCAGGTAAGTTACCGAAAGGTAACTTACCTGGGCAACTAGAATGCAGTGAAAAAAATGCTTTATTTGTGAAATTTGTGATGCTATTGCTTTATTTGTAACCATTATAAGCTGCAATAAACAAGTTAACAACAAC",completely abolished the suppressive effect of the U1 site,–,suppressive effect of U1 site on luciferase gene expression (in words) ([1]; listed as U1 87-9 stem loop): completely abolished the suppressive effect
"2×U1-140 wt: 2 copies of wild type U1 binding sequence at −140 in pRL-SV40 (nucleic acid, in pRL-SV40; 2xU1-140 wt in pRL-SV40) DNA: TCAAATCGTTCGTTGAGCGAGTTCTCAAAAATGAACAATAATTCTAGACAGGTAAGTAACCAAACAGGTAAGTAGCGGCCGCTTCGAGCAGACATGATAAGATACATTGATGAGTTTGGACAAACCACAACTAGAATGCAGTGAAAAAAATGCTTTATTTGTGAAATTTGTGATGCTATTGCTTTATTTGTAACCATTATAAGCTGCAATAAACAAGTTAACAACAAC",–,272,–
"U1_theo_9: U1 site stem linked to theophylline aptamer in pRL-SV40, stem truncation series (nucleic acid, in pRL-SV40; U1_theo_9 in pRL-SV40, U1 site stem linked to theophylline aptamer in pRL-SV40, stem truncation series) DNA: TCAAATCGTTCGTTGAGCGAGTTCTCAAAAATGAACAATAATTCTAGAGCGGCCGCTTCGAGCAGACATGATAAGATACATTGATGAGTTTGGACAAACCAAACCCAGGTAAGTATACCAGCCGAAAGGCCCTTGGCAGACTTACCTGGGCAACTAGAATGCAGTGAAAAAAATGCTTTATTTGTGAAATTTGTGATGCTATTGCTTTATTTGTAACCATTATAAGCTGCAATAAACAAGTTAACAACAAC",–,–,change of luciferase activity after theophylline treatment (in words) [2]: small increase in luciferase activity; change of luciferase activity after theophylline treatment (in words) ([2]; listed as 9): increased
"U1_theo_8: U1 site stem linked to theophylline aptamer in pRL-SV40, stem truncation series (nucleic acid, in pRL-SV40; U1_theo_8 in pRL-SV40, U1 site stem linked to theophylline aptamer in pRL-SV40, stem truncation series) DNA: TCAAATCGTTCGTTGAGCGAGTTCTCAAAAATGAACAATAATTCTAGAGCGGCCGCTTCGAGCAGACATGATAAGATACATTGATGAGTTTGGACAAACCAAACCCAGGTAAGTGATACCAGCCGAAAGGCCCTTGGCAGCACTTACCTGGGCAACTAGAATGCAGTGAAAAAAATGCTTTATTTGTGAAATTTGTGATGCTATTGCTTTATTTGTAACCATTATAAGCTGCAATAAACAAGTTAACAACAAC",–,–,"induction fold of luciferase activity (theophylline treated / untreated) ([2]; 3 mM theophylline, 20 to 24 hours): 1.3 fold; change of luciferase activity after theophylline treatment (in words) [2]: small increase in luciferase activity; change of luciferase activity after theophylline treatment (in words) ([2]; listed as 8): increased"
"3×U1-140 wt: 3 copies of wild type U1 binding sequence at −140 in pRL-SV40 (nucleic acid, in pRL-SV40; 3xU1-140 wt in pRL-SV40) DNA: TCAAATCGTTCGTTGAGCGAGTTCTCAAAAATGAACAATAATTCTAGACAGGTAAGTAACCAAACAGGTAAGTAACCAAACAGGTAAGTAGCGGCCGCTTCGAGCAGACATGATAAGATACATTGATGAGTTTGGACAAACCACAACTAGAATGCAGTGAAAAAAATGCTTTATTTGTGAAATTTGTGATGCTATTGCTTTATTTGTAACCATTATAAGCTGCAATAAACAAGTTAACAACAAC",–,462,–
"87-9: 9-nt truncated U1 site at −87 in pRL-SV40 (nucleic acid, in pRL-SV40; 87-9 in pRL-SV40, 9-nt truncated U1 site at −87 in pRL-SV40) DNA: TCAAATCGTTCGTTGAGCGAGTTCTCAAAAATGAACAATAATTCTAGAGCGGCCGCTTCGAGCAGACATGATAAGATACATTGATGAGTTTGGACAAACCAGGTAAGTCAACTAGAATGCAGTGAAAAAAATGCTTTATTTGTGAAATTTGTGATGCTATTGCTTTATTTGTAACCATTATAAGCTGCAATAAACAAGTTAACAACAAC",functioned as well as the 10-nt U1 site,–,–
"U1-87 mut: 10-nt mutant U1 binding sequence at −87 in pRL-SV40 (nucleic acid, in pRL-SV40; U1-87 mut in pRL-SV40) DNA: TCAAATCGTTCGTTGAGCGAGTTCTCAAAAATGAACAATAATTCTAGAGCGGCCGCTTCGAGCAGACATGATAAGATACATTGATGAGTTTGGACAAACCATGGAACTACAACTAGAATGCAGTGAAAAAAATGCTTTATTTGTGAAATTTGTGATGCTATTGCTTTATTTGTAACCATTATAAGCTGCAATAAACAAGTTAACAACAAC",did not have any suppressive effect on luciferase gene expression,–,–
"U1-87 wt: 10-nt consensus U1 binding sequence 87 nt upstream of poly(A) signal in 3′ UTR of pRL-SV40 (nucleic acid, in pRL-SV40; U1-87 wt in pRL-SV40) DNA: TCAAATCGTTCGTTGAGCGAGTTCTCAAAAATGAACAATAATTCTAGAGCGGCCGCTTCGAGCAGACATGATAAGATACATTGATGAGTTTGGACAAACCAGGTAAGTACAACTAGAATGCAGTGAAAAAAATGCTTTATTTGTGAAATTTGTGATGCTATTGCTTTATTTGTAACCATTATAAGCTGCAATAAACAAGTTAACAACAAC",–,50,inhibition of Renilla luciferase expression/activity [1]: 98%
"U1 87-9 SL broken: control sequence in which no stem is formed, in pRL-SV40 (nucleic acid, in pRL-SV40; U1 87-9 SL broken in pRL-SV40) DNA: TCAAATCGTTCGTTGAGCGAGTTCTCAAAAATGAACAATAATTCTAGAGCGGCCGCTTCGAGCAGACATGATAAGATACATTGATGAGTTTGGACAAACCAAACCCAGGTAAGTTACCGAAAAAAACAAACAAAAAACAACTAGAATGCAGTGAAAAAAATGCTTTATTTGTGAAATTTGTGATGCTATTGCTTTATTTGTAACCATTATAAGCTGCAATAAACAAGTTAACAACAAC",showed little effect on the suppressive function of U1 site,–,–
